US20090105152A1
Numbered stars: 1 amine (or outer) side, 2 acyl side, 3 side chain; on linkers, the order of the positions; unused ones are H or OH. Square brackets hold non-standard residues; d marks the D form. Asp(NHcPr) = N-omega-cyclopropylasparagine, O=C(C[C@H](N[*:1])C(=O)[*:2])NC1CC1; Asp(NHBzl) = N-omega-benzylasparagine, O=C(C[C@H](N[*:1])C(=O)[*:2])NCc1ccccc1; Phe(4-F) = N[C@@H](Cc1ccc(F)cc1)C(=O)O; Arg(Me) = CNC(=N)NCCC[C@H](N)C(=O)O; Dap(CONH2) = NC(=O)NC[C@H](N)C(=O)O; Ala(cPr) = N[C@@H](CC1CC1)C(=O)O; Hyp = O=C(O)[C@@H]1C[C@@H](O)CN1; Cit = NC(=O)NCCC[C@H](N)C(=O)O; NMeS = CN[C@@H](CO)C(=O)O; Aib = CC(C)(N)C(=O)O; azaGly = NNC(=O)O

B1: des(1)-Ac-[D-Tyr2,Hyp3,Gly5,AzaGly7,Arg(Me)9,Trp10]MS10 (peptide)
peptide: Ac-[dY][Hyp]NGF[azaGly]L[Arg(Me)]W-NH2
SMILES: CNC(=N)NCCC[C@H](NC(=O)[C@H](CC(C)C)NC(=O)NNC(=O)[C@H](Cc1ccccc1)NC(=O)CNC(=O)[C@H](CC(N)=O)NC(=O)[C@@H]1C[C@@H](O)CN1C(=O)[C@@H](Cc1ccc(O)cc1)NC(C)=O)C(=O)N[C@@H](Cc1c[nH]c2ccccc12)C(N)=O
B2: des(1)-Ac-[D-Tyr2,Gly3,Thr5,Phe(4F)6,AzaGly7,Arg(Me)9,Trp10]MS10 (peptide)
peptide: Ac-[dY]GNT[Phe(4-F)][azaGly]L[Arg(Me)]W-NH2
SMILES: CNC(=N)NCCC[C@H](NC(=O)[C@H](CC(C)C)NC(=O)NNC(=O)[C@H](Cc1ccc(F)cc1)NC(=O)[C@@H](NC(=O)[C@H](CC(N)=O)NC(=O)CNC(=O)[C@@H](Cc1ccc(O)cc1)NC(C)=O)[C@@H](C)O)C(=O)N[C@@H](Cc1c[nH]c2ccccc12)C(N)=O
B3: des(1)-Ac-[D-Tyr2,Hyp3,Alb4,Thr5,AzaGly7,Arg(Me)9,Trp10]MS10 (peptide)
peptide: Ac-[dY][Hyp][Dap(CONH2)]TF[azaGly]L[Arg(Me)]W-NH2
SMILES: CNC(=N)NCCC[C@H](NC(=O)[C@H](CC(C)C)NC(=O)NNC(=O)[C@H](Cc1ccccc1)NC(=O)[C@@H](NC(=O)[C@H](CNC(N)=O)NC(=O)[C@@H]1C[C@@H](O)CN1C(=O)[C@@H](Cc1ccc(O)cc1)NC(C)=O)[C@@H](C)O)C(=O)N[C@@H](Cc1c[nH]c2ccccc12)C(N)=O
B4: des(1)-Ac-[D-Tyr2,Hyp3,D-Ala5,AzaGly7,Arg(Me)9,Trp10]MS10 (peptide)
peptide: Ac-[dY][Hyp]N[dA]F[azaGly]L[Arg(Me)]W-NH2
SMILES: CNC(=N)NCCC[C@H](NC(=O)[C@H](CC(C)C)NC(=O)NNC(=O)[C@H](Cc1ccccc1)NC(=O)[C@@H](C)NC(=O)[C@H](CC(N)=O)NC(=O)[C@@H]1C[C@@H](O)CN1C(=O)[C@@H](Cc1ccc(O)cc1)NC(C)=O)C(=O)N[C@@H](Cc1c[nH]c2ccccc12)C(N)=O
B5: des(1)-Ac-[D-Tyr2,Hyp3,D-Asn4,Thr5,AzaGly7,Arg(Me)9,Trp10]MS10 (peptide)
peptide: Ac-[dY][Hyp][dN]TF[azaGly]L[Arg(Me)]W-NH2
B6: des(1-5)-4-Ureidobenzoyl-[AzaGly7,Arg(Me)9,Trp10]MS10 (peptide)
peptide: {4‑ureidobenzoyl}-F[azaGly]L[Arg(Me)]W-NH2
B7: des(1)-Ac-[D-Tyr2,Hyp3,Thr5,D-Phe6,AzaGly7,Arg(Me)9,Trp10]MS10 (peptide)
peptide: Ac-[dY][Hyp]NT[dF][azaGly]L[Arg(Me)]W-NH2
B8: des(1)-Ac-[D-Tyr2,Hyp3,Hyp5,AzaGly7,Arg(Me)9,Trp10]MS10 (peptide)
peptide: Ac-[dY][Hyp]N[Hyp]F[azaGly]L[Arg(Me)]W-NH2
SMILES: CNC(=N)NCCC[C@H](NC(=O)[C@H](CC(C)C)NC(=O)NNC(=O)[C@H](Cc1ccccc1)NC(=O)[C@@H]1C[C@@H](O)CN1C(=O)[C@H](CC(N)=O)NC(=O)[C@@H]1C[C@@H](O)CN1C(=O)[C@@H](Cc1ccc(O)cc1)NC(C)=O)C(=O)N[C@@H](Cc1c[nH]c2ccccc12)C(N)=O
B9: des(1)-Ac-[D-Tyr2,Hyp3,Thr5,AzaGly7,Trp10]MS10 (peptide)
peptide: Ac-[dY][Hyp]NTF[azaGly]LRW-NH2
SMILES: CC(=O)N[C@H](Cc1ccc(O)cc1)C(=O)N1C[C@H](O)C[C@H]1C(=O)N[C@@H](CC(N)=O)C(=O)N[C@H](C(=O)N[C@@H](Cc1ccccc1)C(=O)NNC(=O)N[C@@H](CC(C)C)C(=O)N[C@@H](CCCNC(=N)N)C(=O)N[C@@H](Cc1c[nH]c2ccccc12)C(N)=O)[C@@H](C)O
B10: des(1)-Ac-[D-Tyr2,Hyp3,Gly4,Thr5,AzaGly7,Arg(Me)9,Trp10]MS10 (peptide)
peptide: Ac-[dY][Hyp]GTF[azaGly]L[Arg(Me)]W-NH2
SMILES: CNC(=N)NCCC[C@H](NC(=O)[C@H](CC(C)C)NC(=O)NNC(=O)[C@H](Cc1ccccc1)NC(=O)[C@@H](NC(=O)CNC(=O)[C@@H]1C[C@@H](O)CN1C(=O)[C@@H](Cc1ccc(O)cc1)NC(C)=O)[C@@H](C)O)C(=O)N[C@@H](Cc1c[nH]c2ccccc12)C(N)=O
B11: des(1-5)-4-[Bis-(2-Pyridylmethyl)aminomethyl]benzoyl-[AzaGly7,Arg(Me)9,Trp10]MS10 (peptide)
peptide: {4‑(bis-(2-pyridylmethyl)aminomethyl)benzoyl}-F[azaGly]L[Arg(Me)]W-NH2
B12: des(1)-Ac-[D-Tyr2,D-Trp3,Asp(NHcPr)4,Thr5,AzaGly7,Arg(Me)9,Trp10]MS10 (peptide)
peptide: Ac-[dY][dW][Asp(NHcPr)]TF[azaGly]L[Arg(Me)]W-NH2
SMILES: CNC(=N)NCCC[C@H](NC(=O)[C@H](CC(C)C)NC(=O)NNC(=O)[C@H](Cc1ccccc1)NC(=O)[C@@H](NC(=O)[C@H](CC(=O)NC1CC1)NC(=O)[C@@H](Cc1c[nH]c2ccccc12)NC(=O)[C@@H](Cc1ccc(O)cc1)NC(C)=O)[C@@H](C)O)C(=O)N[C@@H](Cc1c[nH]c2ccccc12)C(N)=O
B13: des(1)-Ac-[D-Tyr2,Hyp3,NMeSer5,AzaGly7,Arg(Me)9,Trp10]MS10 (peptide)
peptide: Ac-[dY][Hyp]N[NMeS]F[azaGly]L[Arg(Me)]W-NH2
SMILES: CNC(=N)NCCC[C@H](NC(=O)[C@H](CC(C)C)NC(=O)NNC(=O)[C@H](Cc1ccccc1)NC(=O)[C@H](CO)N(C)C(=O)[C@H](CC(N)=O)NC(=O)[C@@H]1C[C@@H](O)CN1C(=O)[C@@H](Cc1ccc(O)cc1)NC(C)=O)C(=O)N[C@@H](Cc1c[nH]c2ccccc12)C(N)=O
B14: des(1)-Ac-[D-Tyr2,D-Trp3,Asp(NHBzl)4,Thr5,AzaGly7,Arg(Me)9,Trp10]MS10 (peptide)
peptide: Ac-[dY][dW][Asp(NHBzl)]TF[azaGly]L[Arg(Me)]W-NH2
SMILES: CNC(=N)NCCC[C@H](NC(=O)[C@H](CC(C)C)NC(=O)NNC(=O)[C@H](Cc1ccccc1)NC(=O)[C@@H](NC(=O)[C@H](CC(=O)NCc1ccccc1)NC(=O)[C@@H](Cc1c[nH]c2ccccc12)NC(=O)[C@@H](Cc1ccc(O)cc1)NC(C)=O)[C@@H](C)O)C(=O)N[C@@H](Cc1c[nH]c2ccccc12)C(N)=O
B15: des(1)-Ac-[D-Tyr2,Hyp3,Ala5,AzaGly7,Arg(Me)9,Trp10]MS10 (peptide)
peptide: Ac-[dY][Hyp]NAF[azaGly]L[Arg(Me)]W-NH2
SMILES: CNC(=N)NCCC[C@H](NC(=O)[C@H](CC(C)C)NC(=O)NNC(=O)[C@H](Cc1ccccc1)NC(=O)[C@H](C)NC(=O)[C@H](CC(N)=O)NC(=O)[C@@H]1C[C@@H](O)CN1C(=O)[C@@H](Cc1ccc(O)cc1)NC(C)=O)C(=O)N[C@@H](Cc1c[nH]c2ccccc12)C(N)=O
B16: des(1)-Ac-[D-Tyr2,Hyp3,Cit4,Thr5,AzaGly7,Arg(Me)9,Trp10]MS10 (peptide)
peptide: Ac-[dY][Hyp][Cit]TF[azaGly]L[Arg(Me)]W-NH2
SMILES: CNC(=N)NCCC[C@H](NC(=O)[C@H](CC(C)C)NC(=O)NNC(=O)[C@H](Cc1ccccc1)NC(=O)[C@@H](NC(=O)[C@H](CCCNC(N)=O)NC(=O)[C@@H]1C[C@@H](O)CN1C(=O)[C@@H](Cc1ccc(O)cc1)NC(C)=O)[C@@H](C)O)C(=O)N[C@@H](Cc1c[nH]c2ccccc12)C(N)=O
B17: des(1)-Ac-[D-Tyr2,Hyp3,His4,Thr5,AzaGly7,Arg(Me)9,Trp10]MS10 (peptide)
peptide: Ac-[dY][Hyp]HTF[azaGly]L[Arg(Me)]W-NH2
SMILES: CNC(=N)NCCC[C@H](NC(=O)[C@H](CC(C)C)NC(=O)NNC(=O)[C@H](Cc1ccccc1)NC(=O)[C@@H](NC(=O)[C@H](Cc1c[nH]cn1)NC(=O)[C@@H]1C[C@@H](O)CN1C(=O)[C@@H](Cc1ccc(O)cc1)NC(C)=O)[C@@H](C)O)C(=O)N[C@@H](Cc1c[nH]c2ccccc12)C(N)=O
B18: des(1)-Ac-[D-Tyr2,Aib3,Thr5,Phe(4F)6,AzaGly7,Arg(Me)9,Trp10]MS10 (peptide)
peptide: Ac-[dY][Aib]NT[Phe(4-F)][azaGly]L[Arg(Me)]W-NH2
SMILES: CNC(=N)NCCC[C@H](NC(=O)[C@H](CC(C)C)NC(=O)NNC(=O)[C@H](Cc1ccc(F)cc1)NC(=O)[C@@H](NC(=O)[C@H](CC(N)=O)NC(=O)C(C)(C)NC(=O)[C@@H](Cc1ccc(O)cc1)NC(C)=O)[C@@H](C)O)C(=O)N[C@@H](Cc1c[nH]c2ccccc12)C(N)=O
B19: des(1)-Ac-[D-Tyr2,Hyp3,Arg4,Thr5,AzaGly7,Arg(Me)9,Trp10]MS10 (peptide)
peptide: Ac-[dY][Hyp]RTF[azaGly]L[Arg(Me)]W-NH2
SMILES: CNC(=N)NCCC[C@H](NC(=O)[C@H](CC(C)C)NC(=O)NNC(=O)[C@H](Cc1ccccc1)NC(=O)[C@@H](NC(=O)[C@H](CCCNC(=N)N)NC(=O)[C@@H]1C[C@@H](O)CN1C(=O)[C@@H](Cc1ccc(O)cc1)NC(C)=O)[C@@H](C)O)C(=O)N[C@@H](Cc1c[nH]c2ccccc12)C(N)=O
B20: des(1)-Ac-[D-Tyr2,Hyp3,D-Thr5,AzaGly7,Arg(Me)9,Trp10]MS10 (peptide)
peptide: Ac-[dY][Hyp]N[dT]F[azaGly]L[Arg(Me)]W-NH2
B21: des(1)-Ac-[D-Tyr2,Hyp3,Gln4,Thr5,AzaGly7,Arg(Me)9,Trp10]MS10 (peptide)
peptide: Ac-[dY][Hyp]QTF[azaGly]L[Arg(Me)]W-NH2
SMILES: CNC(=N)NCCC[C@H](NC(=O)[C@H](CC(C)C)NC(=O)NNC(=O)[C@H](Cc1ccccc1)NC(=O)[C@@H](NC(=O)[C@H](CCC(N)=O)NC(=O)[C@@H]1C[C@@H](O)CN1C(=O)[C@@H](Cc1ccc(O)cc1)NC(C)=O)[C@@H](C)O)C(=O)N[C@@H](Cc1c[nH]c2ccccc12)C(N)=O
B22: des(1)-Ac-[D-Tyr2,Hyp3,Thr5,AzaGly7,Ala(cPr)8,Arg(Me)9,Trp10]MS10 (peptide)
peptide: Ac-[dY][Hyp]NTF[azaGly][Ala(cPr)][Arg(Me)]W-NH2
SMILES: CNC(=N)NCCC[C@H](NC(=O)[C@H](CC1CC1)NC(=O)NNC(=O)[C@H](Cc1ccccc1)NC(=O)[C@@H](NC(=O)[C@H](CC(N)=O)NC(=O)[C@@H]1C[C@@H](O)CN1C(=O)[C@@H](Cc1ccc(O)cc1)NC(C)=O)[C@@H](C)O)C(=O)N[C@@H](Cc1c[nH]c2ccccc12)C(N)=O

Target: human OT7T175 (metastin receptor) (human) (UniProt Q969F8)
Assay: cell-based or functional assay

Chain of human OT7T175 (metastin receptor) (human) (Q969F8 whole entry L364H): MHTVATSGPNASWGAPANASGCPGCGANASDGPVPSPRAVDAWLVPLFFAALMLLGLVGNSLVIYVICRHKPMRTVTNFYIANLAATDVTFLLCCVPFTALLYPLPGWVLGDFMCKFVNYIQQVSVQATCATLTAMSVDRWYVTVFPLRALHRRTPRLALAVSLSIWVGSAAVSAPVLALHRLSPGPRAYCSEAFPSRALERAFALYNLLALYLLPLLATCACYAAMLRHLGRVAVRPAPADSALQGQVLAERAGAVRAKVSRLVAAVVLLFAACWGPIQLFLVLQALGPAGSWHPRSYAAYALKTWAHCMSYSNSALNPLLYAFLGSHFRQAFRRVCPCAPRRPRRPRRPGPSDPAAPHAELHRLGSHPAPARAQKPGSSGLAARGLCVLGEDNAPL

intracellular Ca ion level-increasing activity [specific activity to Metastin (1-54)] (relative to Metastin (1-54)) | Binder
0.5 | B1
2.3 | B2
0.8 | B3
0.5 | B4
0.9 | B5
1.3 | B6
2.3 | B7
1.5 | B8
1.4 | B9
0.7 | B10
11.1 | B11
1.6 | B12
1 | B13
3.6 | B14
0.5 | B15
1 | B16
1.1 | B17
2.9 | B18
1.4 | B19
0.9 | B20
0.8 | B21
0.6 | B22
